This is an account of results in the nanobody polyreactivity screen of Harvey et al. (2022).

The series in a line: yeast display, Sf9 membrane polyspecificity reagent, FACS + sequencing; frameworks hold sequencing errors. In outline: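 Using colony PCR, genes from sorted yeast display clones were amplified, then sequenced on MiSeq at 2 × 250 and filtered by CDR length. The clones had been stained with 10% biotinylated, detergent-solubilized Sf9 membrane reagent for 1 hour at 4 °C and sorted by FACS into low and high (top ~1%) gates on anti-HA and streptavidin fluorescence. Polyreactivity labels come from the gate of origin.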
Consider “QVQLVESGGGLVQAGGSLRLSCAASGSTFTGYAMGWYRPAPGKEREFVAAISRSGGSTYYADSVKGRFTISRDNAKNTVYLQMNSLKPEDTAVYYCNARGFTRYTVGRNYWGQGTQVTVSS”, for which the “polyreactivity (PSR sort gate)” value was “high polyreactivity”.
Regarding “QVQLVESGGGLVQAGGSLRLSCAASGSTFTGYAMGWYRQAPGKEMELVAAISISGGRTVYADSVKGRFTISRDNAKNTVYLQMNSLKREDTAVYYCNARYTRYTLRYYYWGQGTQVTVSS”, the “polyreactivity (PSR sort gate)” value was “high polyreactivity”.
For “QVQLVESGGGLVQAGGSLRLSCAASGSTFTGYAMGWYRQAPGKERELVAAISISGGRTFYADSVKGRFTISRDNAKNTVYLQKNSLKPEDTAVSYCAASLRGSKYSFDYWGQGTQVTVSS”, the “polyreactivity (PSR sort gate)” value is “high polyreactivity”.
Turning to “QVQLVESGGGLVQAGGSLRLSCAASGSTFTGYDMGWYRQAPGKERELVAAISISGGRTFYADSVKGRFTISRDNAKNTVYLQMNSLKPEDTAVYYCAAYQRGSKYSFDYWGQGTQVTVSS”, the “polyreactivity (PSR sort gate)” value is given as “high polyreactivity”.
The same measure for “QVQLVESGGGLVQAGGSLRLSCAASGSTFTGYTMGWYRQAPGKERELVAAISRRGTSTYYADSVKGRFTISRDNAKNSVYLQMNSLKPEDTAVYYCADYQGQKGYDYWGQGTQVTVSS”: “high polyreactivity”.
The value for “QVQLVESGGGLVQAGGSLRLSCAASGSTFTGYTMGWYRQAPGKERELVAAISRRGTSTYYADSVKGRFTISRDNAKNTVYLQMNSLKPEDTAVYYCAAYQGQKGYDYWGQGTQVTVSS” was “high polyreactivity”.
The value for “QVQLVESGGGLVQAGGSLRLSCAASGSTFTGYVLGWYRQAPGKERELVAAITSSVDGTYYADSVKGRFTISRDIAKNTVYLQMNSLKPEDTAVYYCAADLWKGVYPSYDYWGQGTQVTVSS” was “low polyreactivity”.
Consider “QVQLVESGGGLVQAGGSLRLSCAASGSTFTGYVMGWYRQAPGKERELVAAITSSVDGTYYADSVKGRFTISRDNAKNTVYLQMNSLKPEDTAVYDCAADLWKGVYPSYDYWGQGTQVTVSS”, for which the “polyreactivity (PSR sort gate)” value is recorded as “low polyreactivity”.
The same measure for “QVQLVESGGGLVQAGGSLRLSCAASGSTFTINVMGWYRQAPGKERELVAAIHGGGRPNYADSVKGRFTISRDNAKKTVYLQMNSLKPEDTAVYYCAADGLSNVRQMDYWGQGTQVTVSS”: “low polyreactivity”; for “QVQLVESGGGLVQAGGSLRLSCAASGSTFTKYDMGWYRQAPGKERELVAAIRSGGDTNYADSVKGRFTISRDNAKNTVYLQMNSLKPEDTAVYYCAAERGPTNHTSYPWYEYHYWGQGTQVTVSS”: “low polyreactivity”.
The value for “QVQLVESGGGLVQAGGSLRLSCAASGSTFTLNAMGWYRQAPGKECELVADISWSSGRTYYADSVKGRFTISRDNAKNTVYLHMNSLKPEDTAVYYCATDDFWNVKFYAYYPEFDYWGQGTQVTVSS” was “low polyreactivity”; that for “QVQLVESGGGLVQAGGSLRLSCAASGSTFTLNAMGWYRQAPGKERELVARISSGGGSTYYADSVNGRFTISRDNAKNTVYLQMNSLKPEDTAVYYCNAGNYRDKSYYWGQGTQVTVSS” was “low polyreactivity”.
The value for “QVQLVESGGGLVQAGGSLRLSCAASGSTFTLYAMGWYRQAPGKERELVAAISWSGDTTYYADSVKGRFTISRDNAKNTVYLQMNSLKPEDTAVYYCAADWYTSYYYEHESWGQGTQVTVSS” was “high polyreactivity”.
Regarding “QVQLVESGGGLVQAGGSLRLSCAASGSTFTLYAMGWYRQAPGKERELVAAITWRGGSTFYADSVKGRFTISRDNAKNTVYLQMNSLKPEDTAVYYCAADYYSYVVGRIDYWGQGTQVTVSS”, the “polyreactivity (PSR sort gate)” value was “high polyreactivity”.
For “QVQLVESGGGLVQAGGSLRLSCAASGSTFTLYAMGWYRQAPGKERELVATITGSGGSTNYADSVKGRFTISRDNAKNTVDLQMNSLKPEDTAVYYCAKRVQQSTWYGYGIGYEYWGQGTQVTVSS”, the “polyreactivity (PSR sort gate)” value was “high polyreactivity”.
The value for “QVQLVESGGGLVQAGGSLRLSCAASGSTFTNNGMGWYRQAPGKERELVATISWDGDSTYYADSVKGRFTISRDNAKNTVYLQMISQKPEDTAVYYCAADEWGSDSALNFEYWGQGTQVTVSS” was “low polyreactivity”; that for “QVQLVESGGGLVQAGGSLRLSCAASGSTFTNYAMGWYRQAPGKERELVAAISSSGGRTYYADSVKGRFTISRDNAKNTVYLQMNSLKPEDTAVYYCARVVRPSVGDYWGQGTQVTVSS” was “high polyreactivity”; that for “QVQLVESGGGLVQAGGSLRLSCAASGSTFTNYAMGWYRQAPGKERELVAGISRSGGTTYYADSVKGRFTISRDNVKNTVYLQMNSLKPEDTAVYYCAAVGYFGGYRYDYWGQGTQVTVSS” was “high polyreactivity”.
On to “QVQLVESGGGLVQAGGSLRLSCAASGSTFTPNAMGWYRQAPGKERELVAAINWSDSSTYYADSVKGRFTISRDNAKNTVYLQMNSLKPEDTAVYFCAAAAQYGQLQVPVYYWGQGTQVTVSS”, for which the “polyreactivity (PSR sort gate)” value was “low polyreactivity”.
The same measure for “QVQLVESGGGLVQAGGSLRLSCAASGSTFTPNAMGWYRQAPGKERELVAASRYTGVGTYYADSVKGRFTISRDNAKNTVYLQMNSPKPEDTAVYYCNRVSRYYNYDYWGQGTQVTVSS”: “high polyreactivity”; for “QVQLVESGGGLVQAGGSLRLSCAASGSTFTPNVMGWSRQAPGKERELVAAINSSGGSTFYADSVKGRFTISRDNAKNTVYLQMNSLKPEDTAVYYCAASWHTPTVYDEYYYWGQGTQVTVSS”: “low polyreactivity”.
For the sequence “QVQLVESGGGLVQAGGSLRLSCAASGSTFTPYAMGWNRQAPGKERELVAAIRRGGSTNYADSVKGRFTISRDNEKNTVYLQMNSLKPEDTAVYYCAATKRRFVKFDYWGQGTQVTVSS”, the “polyreactivity (PSR sort gate)” value is listed as “low polyreactivity”.
The same measure for “QVQLVESGGGLVQAGGSLRLSCAASGSTFTQYVMGWYRQAPGKERELVAAISDSGSTYYADSVKGRFTISRDNAKNTVYLQMNSLKPEDTAVYYCNADDVDFYYGYGYLEYDYWGQGTQVTVSS”: “low polyreactivity”.
The value for “QVQLVESGGGLVQAGGSLRLSCAASGSTFTRNAMGWYRQAPGKERELVAAISSSGGRTYYADSVKGRFTISRDNAKNTVYLQMNSLKPEDTAVYYCAAGIRTSAGYDYWGQGTQVTVSS” was “high polyreactivity”; that for “QVQLVESGGGLVQAGGSLRLSCAASGSTFTRNAMGWYRQAPGKERELVAVISSRGGRTYYADSVKGRFTISRDNAKNTVYLQMNSLKPEDTAVYYCAARTWVLYTWRSYYEYYYWGQGTQVTVSS” was “high polyreactivity”; that for “QVQLVESGGGLVQAGGSLRLSCAASGSTFTRYAMGWYRQAPGKERELVAAITRSGGGTYYADSVKGRFTSSRDNAKNTVYLQLNSLKPEDTAVYYCAKDIVFYGSPGYGYWGQGTQVTVSS” was “high polyreactivity”.
In the case of “QVQLVESGGGLVQAGGSLRLSCAASGSTFTRYDMGGYRHAPGKERELVAAISKSGGSTYYADSVKGRFTISRDNAKNTVYLQMNSLKPEDTAVYYCARGSTKYHIYSLDYWGQGTQVTVSS”, the “polyreactivity (PSR sort gate)” value was “low polyreactivity”.
The value for “QVQLVESGGGLVQAGGSLRLSCAASGSTFTRYGMGWYRQAPGKERELVAAITTSGSSTYYADSVKGRFTISRDNAKNTVYLQMNSLKPEDTAVYYCAADWSSWGFDYWGQGTQVTVSS” was “low polyreactivity”; that for “QVQLVESGGGLVQAGGSLRLSCAASGSTFTSNTRWYRQAPGKERELVAAISNRGGGTYYADSVKGRFTISRDNAKNTVYLQMNSLKPEDTAVYYCNAAGYARKTAYYYWGQGTQVTVSS” was “high polyreactivity”.
“QVQLVESGGGLVQAGGSLRLSCAASGSTFTSYAMGWYIQAPGKERELVAAIRYRGDGTYYADSVKGRFTISRDNAKNTVYLQMNSLKPEDTAVYYCAADTTLQAFIRYRPIGSYDSWGQGTQVTVSS”: the “polyreactivity (PSR sort gate)” value is recorded as “low polyreactivity”.
